The source of these data is US20260008852A1 (CRYSTAL BIOSCIENCE, published 2026).

The labels stand for the following.
T1: his-tagged B7-H3 (UniProt Q5ZPR3-2 29-245, limits assumed)
T1 construct: also called CD276; not shown: His tag
T1 sequence (looked up): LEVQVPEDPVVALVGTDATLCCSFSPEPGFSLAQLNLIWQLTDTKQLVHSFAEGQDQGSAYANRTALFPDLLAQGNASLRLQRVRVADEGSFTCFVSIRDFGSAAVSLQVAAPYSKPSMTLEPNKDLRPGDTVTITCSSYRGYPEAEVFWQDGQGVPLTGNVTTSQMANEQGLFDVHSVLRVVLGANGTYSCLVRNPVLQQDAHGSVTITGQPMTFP

B1: 40633p1.1.F2 scFv-Fc (scFv, V domains shown)
VH: EVQLLESGGGLVQPGGSLRLSCVASGLTFNGFAMTWVRQAPGKGLEWVSGISWNSGSIYYADSVKGRFTISRDNSKNTVYLQMSSLRAEDTAIYYCAKNWNDYYNSMDVWGQGTTVTVSS
VL: QSVLTQPPSASGTPGQRVTISCSGSRSNIGTKYVYWYQQFPGTAPKLLIYTTDRRPSGVPDRFSGSKSGTSASLAISGLQSEDEADYYCSAWDDRLNAWVFGGGTKLTVL
notes: Tested as scFv-Fc supernatant
B2: 40633p1.2.A10 scFv-Fc (scFv, V domains shown)
VH: EVQLLESGGGLVQPGGSLRLSCAASGFTVSYYGMSWVRQAPGKGLEWVSVIKQDGSEEYYADSVKGRFTISRDNSKNTLYLQMNSLRAEDTAVYYCARHWNDYSNGMNVWGQGTTVTVSS
VL: QSVLTQPPSASGTPGQRVTISCSGSTSNVGDRYVYWYQQLPGTAPKLLIYLDDQRPSGVPDRFSGSKSGTSASLAISGLQSEDEADYYCASWDASLNGWVFGGGTKLTVL
notes: Tested as scFv-Fc supernatant
B3: 40633p1.1.E3 scFv-Fc (scFv, V domains shown)
VH: B2 VH with V50A, E58K, G106A
VL: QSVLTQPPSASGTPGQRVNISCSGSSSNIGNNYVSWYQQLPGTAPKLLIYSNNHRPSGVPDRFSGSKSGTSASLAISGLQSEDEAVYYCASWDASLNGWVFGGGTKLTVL
notes: Tested as scFv-Fc supernatant
B4: 40633p1.1.G5 scFv-Fc (scFv, V domains shown)
VH: B2 VH with T28I, S30N, A40P, V50A, E58K, N77T
VL: QSVLTQPPSASGTPGQRVTISCSGSWSNIGSYNSHWYQKLPGTAPKLLIYTTDRRPSGVPDRFSGSKSGTSASLAISGLQSEDEADYYCGTWDDSLNVWVFGGGTKLTVL
notes: Tested as scFv-Fc supernatant
B5: 40633p1.2.C3 scFv-Fc (scFv, V domains shown)
VH: B2 VH with V50A, E58K, G106A, G111E
VL: B2 VL with T26N, D31G, R32N, Y35S, L51R, D52N, D53S, D86V
notes: Tested as scFv-Fc supernatant
B6: 40633p1.2.F3 scFv-Fc (scFv, V domains shown)
VH: B2 VH
VL: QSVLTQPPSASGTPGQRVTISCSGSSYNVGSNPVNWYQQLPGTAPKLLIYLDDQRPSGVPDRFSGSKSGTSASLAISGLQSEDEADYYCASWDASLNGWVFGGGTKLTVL
notes: Tested as scFv-Fc supernatant
B7: 40633p1.2.E1 scFv-Fc (scFv, V domains shown)
VH: B2 VH with G9R
VL: B2 VL
notes: Tested as scFv-Fc supernatant
B8: 40633p1.1.A7 scFv-Fc (scFv, V domains shown)
VH: B2 VH with V50A, E58K, G106A
VL: B2 VL with V29I, D31R, R32E, Y33S, L51T, D52I, D86V
notes: Tested as scFv-Fc supernatant
B9: 40633p1.1.G11 scFv-Fc (scFv, V domains shown)
VH: B2 VH with L86P
VL: B2 VL
notes: Tested as scFv-Fc supernatant
B10: 40579p1.H6 scFv-Fc (scFv, V domains shown)
VH: EVQLLESGGGLVQPGGSLRLSCAASGFTVNNAWMSWVRQAPGKGLEWVSAISYGGSIYYADSVKGRFTISRDNSKNTLYLQMNSLRAEDTAVYYCAKHRSTTYNGMDVWGQGTTVTVSS
VL: EIVLTQSPGTLSLSPGERATLSCRASQSVGSFLAWYQQKPGQAPRLLIYGANTRAAGIPDRFRGSGNGTDFTLTISSLQSEDFAVYYCQQYYDWPPLTFGGGTKVEIK
B11: 40633p1.1.B12 scFv-Fc (scFv, V domains shown)
VH: EVQLLESGGGLLQPGGSLRLSCAASGFSFSSYGMHWVRQAPGKGLEWVAAINSDGSRIYYADSVKGRFTISRDNSKNTLYLQMNSLRAEDTAVYYCTKYYYHYAMDVWGQGTTVTVSS
VL: QSVLTQPPSASGTPGQRVTISCSGSRSDIGATTVNWYQQLPGTAPKLLTYQSHLRPSGVPDRFSGSKSGTSASLAISGLQSEDEADYYCASWDASLNTWVFGGGTKLTVL
B12: 40633p1.1.G10 scFv-Fc (scFv, V domains shown)
VH: B11 VH with L12V, Q13E, E46D, A50V, S53G, D54E, R57G, I58T, N77S, H102N
VL: B11 VL with S27T, A31T, T33S, T49I, L54Q, L96Q
B13: 40633p1.1.A11 scFv-Fc (scFv, V domains shown)
VH: EVQLLESGGDLVQPGGSLRLSCAASGFTFNTYWMNWVRQAPGKGLEWVAGINSKGGVTYYADSVKGRFTISRDNSKNTLYLQMNSLRAEDTAVYYCADWNDYDIMDVWGQGTTVTVSS
VL: QSVLTQPPSASGTPGQTITISCSGSSSNVGRRTVNWYQQLPGTAPKLLIYTNAQRPSGVPDRFSGSKSGTSASLAISGLQSEDEADYYCATWDDSLNAWVFGGGTKLTVL
B14: 40633p1.1.B3 scFv-Fc (scFv, V domains shown)
VH: B2 VH with V50A, E58K, G106A
VL: B1 VL with R26T, T31R, K32E, Y33S, F40L, T52I, R54Q, S90G, A91T, R95S
notes: Tested as scFv-Fc supernatant
B15: 40633p1.1.E4 scFv-Fc (scFv, V domains shown)
VH: B13 VH with D10G, N30S, T31S, N35S, A49S, N52S, K54S, G56S, V57A, D98R
VL: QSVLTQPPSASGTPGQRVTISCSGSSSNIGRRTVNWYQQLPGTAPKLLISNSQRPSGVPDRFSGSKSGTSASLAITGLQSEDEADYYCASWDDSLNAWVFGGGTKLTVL
notes: Tested as scFv-Fc supernatant
B16: 40633p1.1.C11 scFv-Fc (scFv, V domains shown)
VH: B13 VH with D10G, N30S, T31S, N35S, S53R, K54N, V57T, D98R
VL: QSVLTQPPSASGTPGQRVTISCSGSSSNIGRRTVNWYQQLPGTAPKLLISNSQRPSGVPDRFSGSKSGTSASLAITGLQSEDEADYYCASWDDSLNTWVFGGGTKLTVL
notes: Tested as scFv-Fc supernatant
B17: 40633p1.2.D7 scFv-Fc (scFv, V domains shown)
VH: B13 VH with D10S, N30S, T31S, N35S, A49S, N52S, K54S, G56S, V57A, D98R
VL: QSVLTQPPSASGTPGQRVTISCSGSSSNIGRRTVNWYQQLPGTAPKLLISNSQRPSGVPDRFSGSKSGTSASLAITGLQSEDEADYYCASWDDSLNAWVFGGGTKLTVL
notes: Tested as scFv-Fc supernatant
B18: 40633p1.1.D11 scFv-Fc (scFv, V domains shown)
VH: EVQLLESGGGLVQPGGSLRLSCAASGFTFRSYAMSWVRQAPGKGLEWVAYIGSSGGTTYYADSVKGRFTISRDNSKNTLYLQMNSLRAEDTAVYYCVKESYYYMDVWGQGTTVTVSS
VL: QSVLTQPPSASGTPGQRVTISCSATISNIDINRVSWYQQLPGTAPKLLIFNSQRPSGVPDRFSGSKSGTSASLAISGLQSEDEADYYCATWDDSLNSWVFGGGTKLTVL
notes: Tested as scFv-Fc supernatant
B19: 40633p1.1.G7 scFv-Fc (scFv, V domains shown)
VH: EVQLLESGGGLVQPGGSLRLSCAASGFTFSGSAMNWVRQAPGKGLEWVSAINSGGTTIYYADSVKGRFTVSRDNSKNTLYLQMNSLRAEDTAVYYCVKLDFYYGMDVWGEGTTVTVSS
VL: QSVVTQPPSASGTPGQRVTVSCSGSSSNVGSKYVQWYQQLPGTAPKLLIYATDRRPSGVPDRFSGSKSGTSASLAISGLQSEDEADYYCASWDDSLNAWVFGGGTKLTVL
notes: Tested as scFv-Fc supernatant
B20: 40579p1.H7 scFv-Fc (scFv, V domains shown)
VH: EVQLLESGGDLVQPGGSLRLSCAASGFNFSSYWMSWVRQAPGKGLEWVSGISISYGGNAYYADSVKGRFTVSRDNSKNTLYLQMNSLRAEDTAVYYCGRDRSPYQYRSMDVWGQGTTVTVSS
VL: EIVLTQSPGTLSLSPGERATLSCRASQSIRSDLAWYQQKPGQAPRLLIYGASSRATGIPARFSGSGSGTEFTLTISSLQSEDFAVYYCQQYNNWPPLTFGGGTKVEIK
notes: Tested as scFv-Fc supernatant
B21: 40633p1.1.E6 scFv-Fc (scFv, V domains shown)
VH: EVQLLESGGGLVQPGGSLRLSCAASGLTFSSYAMNWVRQAPGKGLEWVAGIGGSGSSTYHTDSVKGRFTISRDNSKNTLYLQMSSLRAEDAAVYYCAKEDHWSGGMDVWGQGTTVTVSS
VL: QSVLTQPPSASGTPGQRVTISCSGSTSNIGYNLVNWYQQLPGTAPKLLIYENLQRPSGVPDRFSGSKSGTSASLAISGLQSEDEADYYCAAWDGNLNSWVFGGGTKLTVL
B22: 40633p1.1.G3 scFv-Fc (scFv, V domains shown)
VH: B21 VH with S84N
VL: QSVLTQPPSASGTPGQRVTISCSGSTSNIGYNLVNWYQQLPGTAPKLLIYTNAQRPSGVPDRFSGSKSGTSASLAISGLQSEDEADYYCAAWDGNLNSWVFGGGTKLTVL
B23: 40633p1.1.A6 scFv-Fc (scFv, V domains shown)
VH: EVQLLESGGGLVQPGGSLRLSCAASGFSFSNYDMSWVRQAPGKGLEWVAGIRSGSRTYYADSVKGRFTISRDNSKNTLYLQMNSLRAEDTATYYCGRYFNMDVWGQGTTVTVSS
VL: QSVLTQPPSASGTPGQRVTISCSGSTFNIGTNLVHWYQQLPGTAPKLLIYLTDRRPSGVPDRFSGSKSGTSASLAISGLQSEDEANYYCATWDDSLNSFLFGGGTKLTVL

Where a chain is given by its changes, count along the chain named. Bounds are passed on as bounds.

The assay concerns the target T1, his-tagged B7-H3. Kind of assay: SPR, Carterra LSA; binder captured by anti-human Fc, his-tagged B7-H3 injected. Here is the method: Binding affinities of anti-B7-H3 antibodies to B7-H3 were measured by Surface Plasmon Resonance (SPR) on a Carterra LSA instrument. Goat anti-human Fc antibody was amine coupled to a HC30M chip. ScFv-Fc supernatants were diluted 30-fold with HBSTE and were captured by the anti-human Fc coupled HC30M chip. A 1:2 dilution series of his-tagged B7-H3, starting at 400 nM, was injected onto the chip for binding. Data was analyzed using the Carterra TM Kinetics software.
As to B1, binding was characterised by a dissociation constant (Kd) of 298 nM; the koff – broadly, a measure of how fast the partners let go of each other – amounted to 0.03 s⁻¹; the kon – broadly, the second-order rate constant of association – came out at 108000 M⁻¹ s⁻¹.

Consider B2, for which the Kd (as a rule, the constant that tells how readily two partners part at equilibrium) stood at 1.44 nM and the kon came out at 422000 M⁻¹ s⁻¹.

Turning to B3, the Kd was > 400 nM, the koff was found to be 0.65 s⁻¹ and the kon came to 2030 M⁻¹ s⁻¹.

B4 displayed a Kd of 437 nM, a koff of 0.06 s⁻¹ and a kon of 141000 M⁻¹ s⁻¹.

With B5, the Kd was 20.7 nM and the kon was determined as 33500 M⁻¹ s⁻¹.

The molecule B6 came in with a Kd of 27.6 nM, a dissociation rate constant (koff) of 0.01 s⁻¹ and a kon of 307000 M⁻¹ s⁻¹.

As for B7, the Kd worked out at 8 nM and the kon came to 124000 M⁻¹ s⁻¹.

B8 yielded a Kd of 3.62 nM and an on-rate constant (kon) of 371000 M⁻¹ s⁻¹.

The molecule B9 displayed a Kd of 1.48 nM and a kon of 434000 M⁻¹ s⁻¹.

Turning to B10, the Kd is 7.72 nM and the kon came out at 252000 M⁻¹ s⁻¹.

On to B11, for which the Kd amounted to 20.2 nM, the koff was 0.01 s⁻¹ and the kon stood at 349000 M⁻¹ s⁻¹.

Molecule B12 came in with a Kd of 0.248 nM and a kon of 349000 M⁻¹ s⁻¹.

In the case of B13, the affinity, expressed as Kd, was 17.4 nM; the koff worked out at 0.01 s⁻¹; the kon stood at 714000 M⁻¹ s⁻¹.

As for B14, the Kd was 6.42 nM and the kon is 360000 M⁻¹ s⁻¹.

For the molecule B15, binding was characterised by a dissociation constant (Kd) of 3.95 nM and the kon turned out to be 523000 M⁻¹ s⁻¹.

In the case of B16, binding was characterised by a dissociation constant (Kd) of 1.03 nM and the kon worked out at 481000 M⁻¹ s⁻¹.

The molecule B17 had a Kd of 5.69 nM and a kon of 402000 M⁻¹ s⁻¹.

As to B18, the Kd came out at 13.2 nM and the kon is 277000 M⁻¹ s⁻¹.

Molecule B19 returned a Kd of 0.113 nM and a kon of 411000 M⁻¹ s⁻¹.

Take B20: the Kd turned out to be 5.57 nM and the kon amounted to 281000 M⁻¹ s⁻¹.

Turning to B21, the affinity, expressed as Kd, was 142 nM and the kon stood at 6880 M⁻¹ s⁻¹.

Regarding B22, binding was put at a Kd of 524 nM, the koff was 0.04 s⁻¹ and the kon came out at 73300 M⁻¹ s⁻¹.

Consider B23, for which the Kd was 1 nM and the kon was 166000 M⁻¹ s⁻¹.
